Measurements from EP4703383A1.
Where a chain is given by its changes, count along the chain named. Numbers in names are those of the source.

B1: H-PR-B03 (antibody, V domains shown)
VH: QVQLKESGPGLVAPSQSLSITCTVSGFSLTGFGVNWFRQPPGRGLEWLGMIWGDGSTDYNSALKSRLSISKDNSKSQVFLKMNSLQTDDTARYYCARVLYYYGGNSFAYWGQGTLVTVSA
VL: DVLMTQTPLSLPVSLGDQASISCRSSQSIVHSNGNTYLEWYLQKPGQSPKLLIYKVSSRFSGVPDRFSGSGSGTDFTLKISRVEAEDLGVYYCFQGSHVPYTFGGGTKLEIK
B2: HP-PR02E11 (antibody, V domains shown)
VH: QVQLQQSGPGLVAPSQSLSITCTVSGFSLTSYGVNWVRQPPGKGLEWLGIIGAGGSTNYNSALMSRLSISKDNSKSQVFLKMNSLQTDDTAMYYCARSLYYYGSSSFAYWGQGTLVTVSA
VL: B1 VL with V2I, L3V, S58N, Y101W, I111L
B3: H-PR-B06 (antibody, V domains shown)
VH: DVKLVESGGGLVKPGGSLKLACAASGFTFSSYTMSWVRQTPEKRLEWVATISSGGSYTYYPDSVKGRFTISRDNAKNTLYLQLSSLKSEDTAMYYCTRDRYYSTTPDWYFDVWGAGTTVTVSS
VL: DIVLTQSPATLSVTPGDSVSLSCRATQIIFNNLHWYQQKSHESPRLLITYTSQSISGIPSRFSGSGSGTDFTLTINSVETEDFGMYFCQQSNTWPRTFGGGTKLEIK
B4: HP-PR02H02 (antibody, V domains shown)
VH: B3 VH with D1E, K3M, V119L
VL: B3 VL with L4I
B5: HP-PR01C02 (antibody, V domains shown)
VH: DVHLVESGPGLVKPSQSLSLTCTVTGYSITSDYAWNWIRQFPGNKLEWMGYISYSGSTGYSPSLKSRVSITRDTSKNQFFLQLNSVTTEDTATYFCARNNWAFDFWGQGTTLTVSS
VL: DIVLTQSPAIMSASPGEKVTMTCSASSSVNYMHWYQQKSGTSPKRWIYDTSKLASGVPARFSGSGSGTSYSLTISSMEAEDAATYYCQQWSSNPLTFGAGTKLELK
B6: HP-PR01B01 (antibody, V domains shown)
VH: EVHLVESGPDLVKPSQSLSLTCTVTGYSITSGYNWHWIRQFPGNKLEWMGYIHYSGSTKYDPSLKSRISFTRDTSRNQFFLQLNSVTTEDRATYYCARSEAGGYSWFAYWGQGTLVTVSA
VL: B5 VL with L4M, T22A
B7: P-PR-G02W (antibody, V domains shown)
VH: QVQLQQPGSELVRPGASVKLSCKASGFTFTTYWVHWVKQRPGQGLEWIGNISPGSGSTNYDEKFKSKASLTVDTFSNTAYMQLSSLTSEDSAVYYCIRHSGNYFNAMDYWGQGTTLTVSS
VL: DIVMTQAAPSVPVTPGESVSISCRSSKSLLHSNGNTYLYWFLQRPGQSPQLLIYRMSNLASGVPDRFSGSGSGTAFTLRISRVEAEDVGVYYCMQHLEYPLTFGAGTKLELK
B8: P-PR-C04W (antibody, V domains shown)
VH: B7 VH with L116V
VL: B7 VL
B9: P-PR-C07H (antibody, V domains shown)
VH: EVQLQQSGAELVRPGTSVQISCKASGYTFTNNWLAWIKQRPGHGLEWIGDIYPGGVYTNYNEKFKGKATLTADTSSSTAYMQLSSLTSEDSAVYFCYYGDFWSAYWGQGTLVTVSA
VL: B7 VL
B10: P-PR-D01H (antibody, V domains shown)
VH: B7 VH with S55G, S84G
VL: B7 VL
B11: P-PR-B09W (antibody, V domains shown)
VH: B7 VH with Y32F, S55G, G56T, T115S, L116V
VL: B7 VL
B12: P-PR-C02H (antibody, V domains shown)
VH: B7 VH with K19R, T115S, L116V
VL: B7 VL with A8T, T14A, S32T, N35Y
B13: P-PR-C08H (antibody, V domains shown)
VH: B7 VH with L116V
VL: B7 VL
B14: P-PR-D06H (antibody, V domains shown)
VH: B7 VH with Y32F, G56T, D61N, S66N
VL: B7 VL with S20T, N35K, R55W, L101F, A105V

Biological target: extracellular segment of human PRLR protein with avi-(his)6 tag (hPRLR-ECD-avi-his) (human) (UniProt P16471)
Sequence (P16471 other isoform, or with tags, fused parts or gaps): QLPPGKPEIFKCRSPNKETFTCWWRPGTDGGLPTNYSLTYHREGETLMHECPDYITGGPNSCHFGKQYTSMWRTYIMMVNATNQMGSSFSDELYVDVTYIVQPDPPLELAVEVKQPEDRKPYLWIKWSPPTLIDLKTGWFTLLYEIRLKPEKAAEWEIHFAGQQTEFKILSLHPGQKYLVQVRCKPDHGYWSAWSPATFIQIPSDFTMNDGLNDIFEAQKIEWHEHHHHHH
Test: ELISA, coated antigen 1 ug/mL, antibody 10 ug/mL

**Q.** Which absorbance at 450nm does the source give for B1 here?
**A.** Its absorbance at 450nm is 4.

**Q.** B2 was tested. Which absorbance at 450nm did it give?
**A.** Its absorbance at 450nm is 3.91.

**Q.** B3 was tested. Which absorbance at 450nm did it give?
**A.** Its absorbance at 450nm is 3.94.

**Q.** B4 was tested. Which absorbance at 450nm did it give?
**A.** The absorbance at 450nm was 3.12.

**Q.** Which absorbance at 450nm does the source give for B5 here?
**A.** The absorbance at 450nm was 1.45.

**Q.** B6 was tested. Which absorbance at 450nm did it give?
**A.** The absorbance at 450nm was 0.638.

**Q.** How did the absorbance at 450nm turn out when B7 was run?
**A.** The absorbance at 450nm was 2.25.

**Q.** For B8, which absorbance at 450nm is on record?
**A.** The absorbance at 450nm was 2.16.

Biological target: murine PRLR extracellular domain (mouse) (UniProt Q08501)
Sequence (Q08501 20-229): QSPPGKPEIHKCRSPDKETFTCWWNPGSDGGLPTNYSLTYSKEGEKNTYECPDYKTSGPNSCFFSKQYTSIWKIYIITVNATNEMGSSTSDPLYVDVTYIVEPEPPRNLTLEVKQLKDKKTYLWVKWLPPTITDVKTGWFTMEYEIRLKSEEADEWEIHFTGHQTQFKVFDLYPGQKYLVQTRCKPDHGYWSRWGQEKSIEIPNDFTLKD
Test: ELISA, coated antigen 1 ug/mL, antibody 10 ug/mL

**Q.** Which absorbance at 450nm does the source give for B1 here?
**A.** Its absorbance at 450nm is 0.382.

**Q.** For B2, which absorbance at 450nm is on record?
**A.** The absorbance at 450nm was 3.44.

**Q.** How did the absorbance at 450nm turn out when B3 was run?
**A.** Its absorbance at 450nm is 0.334.

**Q.** How did the absorbance at 450nm turn out when B4 was run?
**A.** The absorbance at 450nm was 0.223.

**Q.** With B5 as the binder, how does the absorbance at 450nm read?
**A.** Its absorbance at 450nm is 0.273.

**Q.** Which absorbance at 450nm does the source give for B6 here?
**A.** The absorbance at 450nm was 0.161.

**Q.** With B9 as the binder, how does the absorbance at 450nm read?
**A.** The absorbance at 450nm was 0.102.

**Q.** B10 was tested. Which absorbance at 450nm did it give?
**A.** The absorbance at 450nm was 0.118.

**Q.** How did the absorbance at 450nm turn out when B11 was run?
**A.** Its absorbance at 450nm is 0.141.

**Q.** B7 was tested. Which absorbance at 450nm did it give?
**A.** The absorbance at 450nm was 0.09.

**Q.** With B12 as the binder, how does the absorbance at 450nm read?
**A.** The absorbance at 450nm was 0.115.

**Q.** With B13 as the binder, how does the absorbance at 450nm read?
**A.** The absorbance at 450nm was 0.094.

**Q.** For B14, which absorbance at 450nm is on record?
**A.** The absorbance at 450nm was 2.52.

**Q.** With B8 as the binder, how does the absorbance at 450nm read?
**A.** Its absorbance at 450nm is 0.09.

Biological target: extracellular segment of the PRLR protein of cynomolgus monkey with avi-(his)6 tag (cynoPRLR-ECD-avi-his) (cynomolgus monkey)
Sequence (chain, as listed by the source limits assumed): as the sequence (P16471 other isoform, or with tags, fused parts or gaps) above, with I76V, A110T, I125M, I158T, T207I counted along it
Test: ELISA, coated antigen 1 ug/mL, antibody 10 ug/mL

**Q.** Which absorbance at 450nm does the source give for B1 here?
**A.** The absorbance at 450nm was 3.75.

**Q.** B2 was tested. Which absorbance at 450nm did it give?
**A.** The absorbance at 450nm was 3.65.

**Q.** For B3, which absorbance at 450nm is on record?
**A.** Its absorbance at 450nm is 0.435.

**Q.** For B5, which absorbance at 450nm is on record?
**A.** Its absorbance at 450nm is 1.52.

**Q.** How did the absorbance at 450nm turn out when B9 was run?
**A.** Its absorbance at 450nm is 2.16.

**Q.** For B10, which absorbance at 450nm is on record?
**A.** Its absorbance at 450nm is 2.37.

**Q.** B11 was tested. Which absorbance at 450nm did it give?
**A.** The absorbance at 450nm was 2.51.

**Q.** For B7, which absorbance at 450nm is on record?
**A.** Its absorbance at 450nm is 2.51.

**Q.** Which absorbance at 450nm does the source give for B12 here?
**A.** Its absorbance at 450nm is 2.3.

**Q.** B13 was tested. Which absorbance at 450nm did it give?
**A.** The absorbance at 450nm was 2.25.

**Q.** For B14, which absorbance at 450nm is on record?
**A.** The absorbance at 450nm was 2.51.

**Q.** With B8 as the binder, how does the absorbance at 450nm read?
**A.** The absorbance at 450nm was 2.25.
